For experiment [1], the target named is Recombinant mouse fibulin-5 (mouse) (UniProt Q9WVH9). Kind of experiment: SPR. For orientation: Surface plasmon resonance follows binding to a sensor surface in real time, without labels.
The target in experiment [2] is Recombinant mouse fibulin-2 (mouse) (UniProt P37889). Kind of experiment: SPR.

The term Kd denotes the free concentration of one partner at which half of the binding sites on the other are occupied at equilibrium, for simple one-to-one binding.

UniProt Q9WVH9, sequence (Q9WVH9 24-448): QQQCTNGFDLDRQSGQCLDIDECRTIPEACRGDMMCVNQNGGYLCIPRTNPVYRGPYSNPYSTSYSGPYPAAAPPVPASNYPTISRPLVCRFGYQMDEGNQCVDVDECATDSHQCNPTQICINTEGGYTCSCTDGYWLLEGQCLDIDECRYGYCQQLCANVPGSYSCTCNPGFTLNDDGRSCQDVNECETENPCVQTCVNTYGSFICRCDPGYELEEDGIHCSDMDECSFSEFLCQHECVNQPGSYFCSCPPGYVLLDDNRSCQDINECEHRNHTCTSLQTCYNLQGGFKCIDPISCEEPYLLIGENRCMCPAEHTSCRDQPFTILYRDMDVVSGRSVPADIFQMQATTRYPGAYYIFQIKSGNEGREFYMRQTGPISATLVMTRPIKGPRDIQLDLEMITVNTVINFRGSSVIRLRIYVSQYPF
UniProt P37889, sequence (P37889 27-1221): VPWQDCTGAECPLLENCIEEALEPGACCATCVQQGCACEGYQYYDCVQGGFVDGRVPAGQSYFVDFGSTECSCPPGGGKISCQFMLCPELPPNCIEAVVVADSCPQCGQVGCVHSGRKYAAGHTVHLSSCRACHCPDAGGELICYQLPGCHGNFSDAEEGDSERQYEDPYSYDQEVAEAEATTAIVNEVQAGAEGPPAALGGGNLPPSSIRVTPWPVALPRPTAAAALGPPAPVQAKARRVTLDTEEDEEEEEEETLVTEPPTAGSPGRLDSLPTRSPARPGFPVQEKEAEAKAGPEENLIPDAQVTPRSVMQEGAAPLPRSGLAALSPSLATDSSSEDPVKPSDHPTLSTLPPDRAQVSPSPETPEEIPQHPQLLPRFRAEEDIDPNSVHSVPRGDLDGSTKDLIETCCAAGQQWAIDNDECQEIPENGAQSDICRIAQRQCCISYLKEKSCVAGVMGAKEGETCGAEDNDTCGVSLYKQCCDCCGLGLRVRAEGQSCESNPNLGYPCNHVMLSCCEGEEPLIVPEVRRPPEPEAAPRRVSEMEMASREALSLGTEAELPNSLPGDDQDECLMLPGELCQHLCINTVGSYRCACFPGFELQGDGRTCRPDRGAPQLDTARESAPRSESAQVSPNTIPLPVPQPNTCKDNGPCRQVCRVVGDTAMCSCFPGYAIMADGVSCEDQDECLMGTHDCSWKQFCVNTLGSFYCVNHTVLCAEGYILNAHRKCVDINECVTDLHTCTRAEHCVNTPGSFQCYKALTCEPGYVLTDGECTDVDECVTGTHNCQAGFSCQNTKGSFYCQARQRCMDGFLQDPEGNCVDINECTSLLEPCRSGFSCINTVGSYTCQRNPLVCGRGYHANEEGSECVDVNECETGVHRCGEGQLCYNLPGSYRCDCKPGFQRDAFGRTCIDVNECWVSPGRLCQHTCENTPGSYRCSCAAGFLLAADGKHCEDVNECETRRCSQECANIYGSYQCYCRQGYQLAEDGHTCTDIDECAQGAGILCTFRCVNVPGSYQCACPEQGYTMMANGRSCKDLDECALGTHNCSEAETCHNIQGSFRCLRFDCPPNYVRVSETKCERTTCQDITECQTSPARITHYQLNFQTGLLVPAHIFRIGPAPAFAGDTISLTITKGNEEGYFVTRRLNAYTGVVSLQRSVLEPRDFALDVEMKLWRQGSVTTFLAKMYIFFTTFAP

As for “Recombinant mouse fibulin-2 (from UniProt P37889 27-1221) (natural protein)”, the Kd in experiment [1] worked out at 100 nM.

Turning to “Recombinant mouse fibulin-5 (from UniProt Q9WVH9 24-448) (natural protein)”, the Kd in experiment [2] is 1650 nM.

Source of the values: PMC2800831.
